Data taken from patent US20190367592A1.

B1: hu37D3.v28.A4 (antibody, V domains shown)
VH: EVQLVESGGGLVQPGGSLRLSCAASGLIFRSYGMSWVRQAPGKGLEWVATINSGGTYTYYPDSVKGRFTISRDNSKNTLYLQMNSLRAEDTAVYYCANSYSGAMDYWGQGTLVTVSS
VL: DDVLTQTPLSLPVTPGQPASISCRSSQSIVHSNGNTYLEWYLQKPGQSPQLLIYKVSNRFSGVPDRFSGSGSGTDFTLKISRVEAEDVGVYYCFQGSLVPWTFGQGTKVEIK
B2: hu37D3-H9.v1 (antibody, V domains shown)
VH: EVQLVESGGGLVQPGGSLRLSCAASGLIFRSYGMSWVRQAPGKGLEWVATINSGGTYTYYPDSVKGRFTISRDNSKNTLYLQMNSLRAEDTAVYYCANSYSGAMDYWGQGTLVTVSS
VL: EDQLTQSPSSLSASVGDRVTITCRSSQSIVHSNGNTYFEWYQQKPGKSPKLLIYKVSNRFSGVPSRFSGSGSGTDFTLTISSLQPEDFATYYCFQGSLVPWTFGQGTKVEIK
B3: hu37D3-H9.v5 (antibody, V domains shown)
VH: EVQLVESGGGLVQPGGSLRLSCAASGLIFRSYGMSWVRQAPGKGLEWVATINSGGTYTYYPDSVKGRFTISRDNSKNTLYLQMNSLRAEDTAVYYCANSYSGAMDYWGQGTLVTVSS
VL: EDVLTQTPLSLPVTPGQPASISCRSSQSIVHSNGNTYFEWYLQKPGQSPQLLIYKVSNRFSGVPDRFSGSGSGTDFTLKISRVEAEDVGVYYCFQGSLVPWTFGQGTKVEIK

Target: monomeric cynomolgus monkey Tau (cynomolgus monkey)
Experiment: SPR, hIgG captured, cyno Tau monomer analyte

Binder	Kd [nM]	koff [s⁻¹]	kon [M⁻¹ s⁻¹]
B1	0.7	0.001	1.7e+06
B2	0.8	0.001	2e+06
B3	0.6	0.001	1.5e+06
